Source: patent US6333311

Legend:
[1] = target: Jurkat cell 105 kD lactoferrin receptor (human); test: Scatchard analysis, 125I-labelled protein on whole Jurkat cells (species comparison)
[2] = target: HT-29 cells (human colon carcinoma cell line); test: Scatchard analysis, 125I-labelled lactoferrin on HT-29 cells; High affinity (nM)
[3] = target: Jurkat cell 105 kD lactoferrin receptor (human); test: Scatchard analysis, 125I-labelled protein on whole Jurkat cells
[4] = target: Jurkat cell 105 kD lactoferrin receptor (human); test: Scatchard analysis, 125I-hLf on Jurkat cells cultured 24 h with 30 mM sodium chlorate
[5] = target: Jurkat cell 105 kD lactoferrin receptor (human); test: Scatchard analysis, 125I-hLf on Jurkat cells cultured without sodium chlorate
[6] = target: Jurkat cell 105 kD lactoferrin receptor (human); test: Scatchard analysis, Jurkat cells cultured 24 h with 30 mM sodium chlorate
human lysozyme (human) [7] = target: human lysozyme (human) (UniProt P61626); test: solid-phase ligand binding ELISA on hLZ-coated plates; percent of the response with natural hLF
[8] = target: HT-29 cells (human colon carcinoma cell line); test: Scatchard analysis, 125I-labelled lactoferrin on HT-29 cells; High affinity (nM); the cell wraps into r15 (8^a))
human lysozyme (human) [9] = target: human lysozyme (human) (UniProt P61626); test: solid-phase ligand binding ELISA on hLZ-coated plates
[10] = target: HT-29 cells (human colon carcinoma cell line); test: Scatchard analysis, 125I-labelled lactoferrin on HT-29 cells; column Total affinity (µM); high affinity binding lost (--)
[11] = target: HT-29 cells (human colon carcinoma cell line); test: Scatchard analysis, 125I-labelled lactoferrin on HT-29 cells; column Total affinity (µM); high affinity binding lost (--); one experiment

Sequence of bovine lactoferrin (P24627 20-708 limits assumed): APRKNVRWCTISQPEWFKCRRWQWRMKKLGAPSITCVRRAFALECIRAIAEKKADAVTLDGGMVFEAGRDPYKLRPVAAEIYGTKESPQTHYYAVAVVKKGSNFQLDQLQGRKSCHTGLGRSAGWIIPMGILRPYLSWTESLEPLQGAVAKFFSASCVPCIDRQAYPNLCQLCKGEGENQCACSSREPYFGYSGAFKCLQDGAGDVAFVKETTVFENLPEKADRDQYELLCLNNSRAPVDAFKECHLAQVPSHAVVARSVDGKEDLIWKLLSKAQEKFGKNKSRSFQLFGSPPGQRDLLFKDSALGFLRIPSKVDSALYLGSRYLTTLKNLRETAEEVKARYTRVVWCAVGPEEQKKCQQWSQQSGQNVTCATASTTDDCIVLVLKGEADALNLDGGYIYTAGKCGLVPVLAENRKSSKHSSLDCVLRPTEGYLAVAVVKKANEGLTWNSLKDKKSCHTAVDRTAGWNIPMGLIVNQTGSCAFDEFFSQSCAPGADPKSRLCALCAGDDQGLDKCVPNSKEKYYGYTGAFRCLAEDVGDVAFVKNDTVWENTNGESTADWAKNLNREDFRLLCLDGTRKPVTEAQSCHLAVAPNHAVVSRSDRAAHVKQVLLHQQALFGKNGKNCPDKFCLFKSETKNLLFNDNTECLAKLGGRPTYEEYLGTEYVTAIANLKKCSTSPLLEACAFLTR

Kd [1] | Kd [2] | Kd [3] | Substance | other results
60 nM | 81 nM |  | bovine lactoferrin (from UniProt P24627) (ligand) | 
 |  | 81 nM | non-modified recombinant human lactoferrin (from UniProt P02788) (ligand) | 
 | 66 nM |  | iron-saturated human lactoferrin (from UniProt P02788) (ligand) | 
60 nM | 74 nM | 69 nM | natural human lactoferrin (from UniProt P02788) (ligand) | Kd [4]: 62.6 nM; Kd [5]: 71.1 nM
 |  | 12.4 nM | rhLF^-5N (ligand) | Kd [6]: 27.9 nM
 |  | 65 nM | hLF^-2N (from UniProt P02788) (ligand) | Reactivity (%) (human lysozyme (human) [7]): 37.5%; Kd [8]: 124 nM; fold lower affinity than N-terminally intact hLF (human lysozyme (human) [9]): 3 fold lower
 | 88 nM |  | transgenic hLF isolated from milk of a transgenic bovine (from UniProt P02788) (ligand) | 
 |  | 57 nM | hLF^-3N (from UniProt P02788) (ligand) | Reactivity (%) (human lysozyme (human) [7]): 5.1%; Kd [6]: 57.2 nM; Kd [10]: 1700 nM; fold lower affinity than N-terminally intact hLF (human lysozyme (human) [9]): 17 fold lower
 |  | 41 nM | hLF^-4N (from UniProt P02788) (ligand) | Kd [11]: 700 nM
31 nM |  |  | murine lactoferrin (from UniProt P08071) (ligand) | 
